The source of these data is article PMC5714956, “Insight into the molecular recognition mechanism of the coactivator NCoA1 by STAT6” (Scientific Reports, 2017).

Experiment [1] addresses NCoA1 (Homo sapiens) (UniProt Q15788). Briefly: competitive fluorescence polarization. To be noted: cited from earlier work.
For experiment [2] the target is unchanged. As to the kind of experiment: fluorescence polarization. Conditions: cited from earlier work. (Fluorescence polarisation rises when a labelled molecule tumbles more slowly, as on binding a larger partner.)
Experiment [3] deals with T1, NCoA1 PAS-B domain 257-385 (nuclear coactivator 1) (UniProt Q15788 257-385).
T1 construct: Used unlabeled or 15N / 15N-13C labeled in the NMR samples
T1 sequence (looked up): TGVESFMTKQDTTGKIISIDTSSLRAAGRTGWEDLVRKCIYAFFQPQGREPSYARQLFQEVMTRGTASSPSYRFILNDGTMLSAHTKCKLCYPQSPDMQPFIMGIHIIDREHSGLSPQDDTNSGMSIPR
Briefly: crystal structure; X-ray structure of the NCoA-1 PAS-B domain in complex with the STAT6 783-814 peptide (PDB 5NWX); peptide added in 1.5 fold molar excess, complex purified by gel filtration (Superdex 75). Conditions: both partners purified. For orientation: SEC sorts molecules by how far they enter the pores of the column.

Chain of NCoA1 (Homo sapiens) (Q15788 2-1441): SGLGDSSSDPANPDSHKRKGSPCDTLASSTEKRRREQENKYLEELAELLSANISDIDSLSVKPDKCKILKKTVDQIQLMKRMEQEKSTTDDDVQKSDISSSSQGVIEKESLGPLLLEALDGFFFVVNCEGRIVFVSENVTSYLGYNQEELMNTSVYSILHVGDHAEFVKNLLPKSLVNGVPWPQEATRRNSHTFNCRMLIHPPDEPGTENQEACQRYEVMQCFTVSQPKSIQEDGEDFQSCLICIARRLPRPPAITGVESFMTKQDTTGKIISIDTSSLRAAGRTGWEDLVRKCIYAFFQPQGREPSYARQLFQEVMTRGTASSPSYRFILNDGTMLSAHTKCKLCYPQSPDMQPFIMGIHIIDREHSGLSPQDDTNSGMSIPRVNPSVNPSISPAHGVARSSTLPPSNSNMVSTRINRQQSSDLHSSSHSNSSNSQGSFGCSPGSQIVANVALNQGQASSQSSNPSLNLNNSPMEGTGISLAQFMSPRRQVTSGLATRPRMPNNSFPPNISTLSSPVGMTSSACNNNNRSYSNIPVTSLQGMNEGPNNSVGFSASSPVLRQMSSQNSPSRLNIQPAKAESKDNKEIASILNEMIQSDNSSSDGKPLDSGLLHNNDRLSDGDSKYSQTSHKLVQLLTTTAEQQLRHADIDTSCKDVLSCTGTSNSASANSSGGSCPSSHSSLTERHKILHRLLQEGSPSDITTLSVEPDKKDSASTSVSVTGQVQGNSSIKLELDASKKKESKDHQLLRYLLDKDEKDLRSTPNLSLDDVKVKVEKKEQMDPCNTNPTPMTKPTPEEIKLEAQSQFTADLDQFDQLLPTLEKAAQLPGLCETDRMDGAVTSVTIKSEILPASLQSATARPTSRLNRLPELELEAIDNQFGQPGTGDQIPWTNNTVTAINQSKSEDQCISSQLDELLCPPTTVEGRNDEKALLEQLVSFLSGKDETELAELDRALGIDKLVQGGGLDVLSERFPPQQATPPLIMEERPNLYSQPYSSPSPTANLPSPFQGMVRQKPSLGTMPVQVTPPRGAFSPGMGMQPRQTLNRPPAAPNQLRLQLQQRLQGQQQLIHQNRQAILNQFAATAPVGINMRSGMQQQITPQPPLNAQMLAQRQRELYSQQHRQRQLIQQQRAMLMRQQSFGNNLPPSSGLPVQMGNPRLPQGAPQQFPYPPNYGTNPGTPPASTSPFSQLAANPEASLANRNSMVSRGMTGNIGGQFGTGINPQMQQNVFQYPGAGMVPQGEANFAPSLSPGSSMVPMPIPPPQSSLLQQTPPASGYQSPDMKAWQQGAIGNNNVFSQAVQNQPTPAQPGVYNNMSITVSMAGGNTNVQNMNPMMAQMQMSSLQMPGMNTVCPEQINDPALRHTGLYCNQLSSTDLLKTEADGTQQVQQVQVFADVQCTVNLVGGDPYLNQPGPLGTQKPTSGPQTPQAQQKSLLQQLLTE

A word on the Ki: it is a measure of affinity in units of concentration, obtained from inhibition or displacement. A word on the Kd: it is a measure of binding affinity in units of concentration. STAT6 783-814 (from UniProt P42226): the Ki in experiment [1] was 40 nM. The Kd in experiment [2] was 40 nM.
Consider STAT6 794-814 (from UniProt P42226), for which the Ki in experiment [1] is 260 nM. The Kd in experiment [2] is 320 nM.

B1: STAT6 peptide 783-814 (fragment of the STAT6 transactivation domain with the LXXLL motif) (peptide, UniProt P42226 783-814, looked up)
chain: GTWIGEDIFPPLLPPTEQDLTKLLLEGQGESG
notes: The His7-tag probably left with the Z-tag (the Z-tag was removed on Ni-NTA resin after TEV cleavage); Used unlabeled or 15N / 15N-13C labeled in the NMR samples; source: produced recombinantly, purified (TEV cleavage, Ni-NTA, reversed phase HPLC); not shown: Z-tag, N-terminal, cleaved
With B1, the binding result in experiment [3] is “binds”.
